Measurements published in US20030232387A1.

Molecular target: mutant αEβ7 integrin, αE ΔE163-E180, on transfected K562 cells (human) (UniProt P38570)
Experiment: flow cytometry on K562 cells expressing mutant αEβ7

Chain of mutant αEβ7 integrin, αE ΔE163-E180, on transfected K562 cells (human) (P38570 other isoform, or with tags, fused parts or gaps mutant, chain 1 of 2): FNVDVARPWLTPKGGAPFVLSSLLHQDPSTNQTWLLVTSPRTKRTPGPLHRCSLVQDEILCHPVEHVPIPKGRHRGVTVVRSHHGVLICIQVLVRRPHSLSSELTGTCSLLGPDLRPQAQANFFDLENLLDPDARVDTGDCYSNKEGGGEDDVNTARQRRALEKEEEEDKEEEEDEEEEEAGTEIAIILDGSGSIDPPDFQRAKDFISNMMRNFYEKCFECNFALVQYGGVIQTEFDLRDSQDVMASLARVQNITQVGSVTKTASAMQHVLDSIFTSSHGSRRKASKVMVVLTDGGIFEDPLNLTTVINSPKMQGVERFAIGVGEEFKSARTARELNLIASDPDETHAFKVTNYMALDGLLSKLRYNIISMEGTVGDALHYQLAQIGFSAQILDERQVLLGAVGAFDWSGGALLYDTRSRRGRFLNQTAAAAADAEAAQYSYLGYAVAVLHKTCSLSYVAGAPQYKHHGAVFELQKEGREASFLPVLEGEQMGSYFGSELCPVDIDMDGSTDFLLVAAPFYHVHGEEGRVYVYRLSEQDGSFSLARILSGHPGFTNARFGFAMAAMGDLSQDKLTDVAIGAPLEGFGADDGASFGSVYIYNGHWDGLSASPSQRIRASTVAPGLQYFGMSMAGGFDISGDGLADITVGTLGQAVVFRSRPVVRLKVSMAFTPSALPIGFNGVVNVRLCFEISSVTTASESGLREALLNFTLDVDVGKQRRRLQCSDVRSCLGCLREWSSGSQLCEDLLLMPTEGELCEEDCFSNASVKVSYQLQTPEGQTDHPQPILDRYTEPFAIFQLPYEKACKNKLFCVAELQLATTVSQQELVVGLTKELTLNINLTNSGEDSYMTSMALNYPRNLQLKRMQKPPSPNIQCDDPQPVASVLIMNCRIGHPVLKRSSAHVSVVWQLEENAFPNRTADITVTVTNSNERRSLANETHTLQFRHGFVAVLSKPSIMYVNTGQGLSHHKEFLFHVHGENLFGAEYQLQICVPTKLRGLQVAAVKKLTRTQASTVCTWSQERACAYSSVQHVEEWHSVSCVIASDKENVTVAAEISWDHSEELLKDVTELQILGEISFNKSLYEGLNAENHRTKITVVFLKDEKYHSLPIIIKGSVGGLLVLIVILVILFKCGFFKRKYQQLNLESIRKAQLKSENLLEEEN
Chain of mutant αEβ7 integrin, αE ΔE163-E180, on transfected K562 cells (human) (chain, as listed by the source mutant, chain 2 of 2): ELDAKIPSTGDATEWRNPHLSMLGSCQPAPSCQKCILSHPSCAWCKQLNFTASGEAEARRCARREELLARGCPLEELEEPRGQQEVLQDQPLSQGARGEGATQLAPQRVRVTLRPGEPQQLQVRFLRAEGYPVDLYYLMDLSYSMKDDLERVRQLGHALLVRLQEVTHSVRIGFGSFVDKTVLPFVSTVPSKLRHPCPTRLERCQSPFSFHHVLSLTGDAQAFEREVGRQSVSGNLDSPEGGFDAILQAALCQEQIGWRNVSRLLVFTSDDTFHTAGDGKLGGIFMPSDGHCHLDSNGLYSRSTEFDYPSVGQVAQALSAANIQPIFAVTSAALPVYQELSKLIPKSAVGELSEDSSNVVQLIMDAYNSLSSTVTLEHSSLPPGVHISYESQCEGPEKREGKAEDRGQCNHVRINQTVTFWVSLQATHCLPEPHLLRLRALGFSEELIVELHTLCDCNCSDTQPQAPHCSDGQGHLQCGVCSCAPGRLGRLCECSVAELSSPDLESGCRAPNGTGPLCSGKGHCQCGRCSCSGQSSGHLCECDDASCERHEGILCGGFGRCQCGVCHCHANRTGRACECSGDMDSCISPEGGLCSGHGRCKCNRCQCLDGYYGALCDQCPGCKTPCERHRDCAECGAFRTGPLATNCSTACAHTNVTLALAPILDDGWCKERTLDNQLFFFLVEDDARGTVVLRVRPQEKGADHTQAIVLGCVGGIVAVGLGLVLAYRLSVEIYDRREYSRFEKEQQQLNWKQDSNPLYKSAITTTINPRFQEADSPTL

% Control Staining: 25%
B1: mAb 5E4 (antibody, V domains shown)
VH: EVQLVESGGGLVQPGGSLRLSCAASGFTFSNFWMSWVRQAPGKGLEWMANIKQDGSEKYYVDSVKGRFTISRDNAKSSLFLQMNSLRVDDTAVYFCAGDYYDSGSFYWGQGTLVTVSS
VL: EIVLTQSPATLSLSPGERATLSCRASQSVRSNLAWYQQKPGQAPRLLIYDASNRAIGIPARFSGSGSGTDFTLTISSLEPEDFVVYYCQQRSNWPPWTFGQGTKVEIK
